Target: Growth Factor Receptor-bound 2 (GRB2), endogenous in HEK cells (human (endogenous in HEK), UniProt P62993 1-217)
Experiment: co-IP

Growth Factor Receptor-bound 2 (GRB2), endogenous in HEK cells, sequence (P62993 whole entry): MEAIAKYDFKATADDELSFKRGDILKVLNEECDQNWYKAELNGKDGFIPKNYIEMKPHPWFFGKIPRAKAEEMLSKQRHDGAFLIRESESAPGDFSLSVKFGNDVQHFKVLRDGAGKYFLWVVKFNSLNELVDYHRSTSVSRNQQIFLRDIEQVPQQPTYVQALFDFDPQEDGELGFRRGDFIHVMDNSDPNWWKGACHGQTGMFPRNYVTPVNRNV

B1: wild-type SWELL1 (SWELL1^WT), transiently expressed in HEK cells (natural protein, UniProt Q8IWT6 1-810, looked up)
chain: MIPVTELRYFADTQPAYRILKPWWDVFTDYISIVMLMIAVFGGTLQVTQDKMICLPCKWVTKDSCNDSFRGWAAPGPEPTYPNSTILPTPDTGPTGIKYDLDRHQYNYVDAVCYENRLHWFAKYFPYLVLLHTLIFLACSNFWFKFPRTSSKLEHFVSILLKCFDSPWTTRALSETVVEESDPKPAFSKMNGSMDKKSSTVSEDVEATVPMLQRTKSRIEQGIVDRSETGVLDKKEGEQAKALFEKVKKFRTHVEEGDIVYRLYMRQTIIKVIKFILIICYTVYYVHNIKFDVDCTVDIESLTGYRTYRCAHPLATLFKILASFYISLVIFYGLICMYTLWWMLRRSLKKYSFESIREESSYSDIPDVKNDFAFMLHLIDQYDPLYSKRFAVFLSEVSENKLRQLNLNNEWTLDKLRQRLTKNAQDKLELHLFMLSGIPDTVFDLVELEVLKLELIPDVTIPPSIAQLTGLKELWLYHTAAKIEAPALAFLRENLRALHIKFTDIKEIPLWIYSLKTLEELHLTGNLSAENNRYIVIDGLRELKRLKVLRLKSNLSKLPQVVTDVGVHLQKLSINNEGTKLIVLNSLKKMANLTELELIRCDLERIPHSIFSLHNLQEIDLKDNNLKTIEEIISFQHLHRLTCLKLWYNHIAYIPIQIGNLTNLERLYLNRNKIEKIPTQLFYCRKLRYLDLSHNNLTFLPADIGLLQNLQNLAITANRIETLPPELFQCRKLRALHLGNNVLQSLPSRVGELTNLTQIELRGNRLECLPVELGECPLLKRSGLVVEEDLFNTLPPEVKERLWRADKEQA
densitometry ratio SWELL1/GRB2 in the GRB2 immunoprecipitate: 0.31

Source: publication PMC5415409 (Nature cell biology, 2017)
